In article PMC7105484, “Crystal structures of REF6 and its complex with DNA reveal diverse recognition mechanisms” (Cell Discovery, 2020):

How the values were obtained:
REF6 W1311A = biological target: T1, REF6 W1311A (Arabidopsis thaliana, UniProt Q9STM3 1223-1360, W1311A); test: MST and EMSA; marked abrogation; MST: 20 mM HEPES pH 7.3, 150 mM NaCl, 0.2 mM TCEP, 0.5% CA-630, 25 C; EMSA: 30 uM protein, 10 uM dsDNA, 20 mM Tris pH 8.0, 100 mM NaCl, 2.5 mM MgCl2, 0.1% CA-630, 10% glycerol, 1 uM ZnSO4, 1 mM DTT, 4 C; details: protein: recombinant; tags: His6-MBP or GST, TEV-cleavable; label: FAM in MST; none in crystal and EMSA; 5' overhang 1 nt on both strands, 15 bp
T1 sequence: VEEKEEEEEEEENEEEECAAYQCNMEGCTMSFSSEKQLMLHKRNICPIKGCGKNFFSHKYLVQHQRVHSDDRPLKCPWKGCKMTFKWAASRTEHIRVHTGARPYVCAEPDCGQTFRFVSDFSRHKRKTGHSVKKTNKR

REF6 S1341W = biological target: T2, REF6 S1341W (Arabidopsis thaliana, UniProt Q9STM3 1223-1360, S1341W); test: as above; details: protein: recombinant; tags: His6-MBP or GST, TEV-cleavable; label: FAM in MST; none in crystal and EMSA; 5' overhang 1 nt on both strands, 15 bp
T2 sequence: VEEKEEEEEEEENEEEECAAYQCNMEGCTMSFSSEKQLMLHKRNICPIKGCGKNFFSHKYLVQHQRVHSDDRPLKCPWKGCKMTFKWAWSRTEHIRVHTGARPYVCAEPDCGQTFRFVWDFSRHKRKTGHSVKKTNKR

REF6 F1339A = biological target: T3, REF6 F1339A (Arabidopsis thaliana, UniProt Q9STM3 1223-1360, F1339A); test: MST; MST: 20 mM HEPES pH 7.3, 150 mM NaCl, 0.2 mM TCEP, 0.5% CA-630, 25 C; EMSA: 30 uM protein, 10 uM dsDNA, 20 mM Tris pH 8.0, 100 mM NaCl, 2.5 mM MgCl2, 0.1% CA-630, 10% glycerol, 1 uM ZnSO4, 1 mM DTT, 4 C; details: protein: recombinant; tags: His6-MBP or GST, TEV-cleavable; label: FAM in MST; none in crystal and EMSA; 5' overhang 1 nt on both strands, 15 bp
T3 sequence: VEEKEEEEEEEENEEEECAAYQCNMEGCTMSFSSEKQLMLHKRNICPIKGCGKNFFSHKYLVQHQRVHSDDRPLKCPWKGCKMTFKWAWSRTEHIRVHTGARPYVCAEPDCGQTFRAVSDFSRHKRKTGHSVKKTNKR

REF6 W1309A = biological target: T4, REF6 W1309A (Arabidopsis thaliana, UniProt Q9STM3 1223-1360, W1309A); test: as above; details: protein: recombinant; tags: His6-MBP or GST, TEV-cleavable; label: FAM in MST; none in crystal and EMSA; 5' overhang 1 nt on both strands, 15 bp
T4 sequence: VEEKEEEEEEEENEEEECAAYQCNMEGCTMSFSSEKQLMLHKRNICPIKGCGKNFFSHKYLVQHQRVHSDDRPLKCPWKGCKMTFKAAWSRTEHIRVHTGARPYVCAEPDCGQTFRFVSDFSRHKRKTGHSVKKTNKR

REF6 D1342A = biological target: T5, REF6 D1342A (Arabidopsis thaliana, UniProt Q9STM3 1223-1360, D1342A); test: as above; details: protein: recombinant; tags: His6-MBP or GST, TEV-cleavable; label: FAM in MST; none in crystal and EMSA; 5' overhang 1 nt on both strands, 15 bp
T5 sequence: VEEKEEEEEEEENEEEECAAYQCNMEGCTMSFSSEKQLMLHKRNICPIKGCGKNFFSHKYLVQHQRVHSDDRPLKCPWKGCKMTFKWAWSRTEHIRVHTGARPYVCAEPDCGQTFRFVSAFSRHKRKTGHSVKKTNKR

REF6 Y1282A = biological target: T6, REF6 Y1282A (Arabidopsis thaliana, UniProt Q9STM3 1223-1360, Y1282A); test: as above; details: protein: recombinant; tags: His6-MBP or GST, TEV-cleavable; label: FAM in MST; none in crystal and EMSA; 5' overhang 1 nt on both strands, 15 bp
T6 sequence: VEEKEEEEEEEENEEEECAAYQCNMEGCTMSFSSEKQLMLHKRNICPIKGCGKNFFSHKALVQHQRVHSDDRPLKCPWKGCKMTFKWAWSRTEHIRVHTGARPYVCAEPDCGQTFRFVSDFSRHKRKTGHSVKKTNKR

REF6 ZnF1-4 WT = biological target: T7, REF6 ZnF1-4 WT (Arabidopsis thaliana, UniProt Q9STM3 1223-1360); test: as above; details: protein: recombinant; tags: His6-MBP or GST tag, TEV-cleavable (cleaved when necessary); label: FAM in MST; none in crystal and EMSA; 5' overhang 1 nt on both strands, 15 bp
T7 sequence: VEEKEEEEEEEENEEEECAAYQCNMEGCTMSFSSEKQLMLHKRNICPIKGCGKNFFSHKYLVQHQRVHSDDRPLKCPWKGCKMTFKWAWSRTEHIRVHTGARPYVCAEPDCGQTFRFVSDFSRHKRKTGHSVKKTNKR

B1: NAC004 m5 (dsDNA)
DNA 1: CTTTCTCTGTTTTGTC
DNA 2: GGACAAAACAGAGAAA
In the case of B1, the binding result (REF6 W1311A) is reported as “no binding”, the binding result (REF6 S1341W) is reported as “no binding” and the Kd (REF6 F1339A) is reported as 500 nM. It also gave a Kd (REF6 W1309A) of 58500 nM, a Kd (REF6 D1342A) of 1300 nM and a Kd (REF6 Y1282A) of 1100 nM. The Kd (REF6 ZnF1-4 WT) was 400 nM.
